Usually EC50 stands for the concentration that produces a half-maximal response.

T1: PBP1A, purified (Escherichia coli, UniProt P02918 1-850, NT647 RED-NHS dye on amines (PBP1A was the labelled protein in all MST assays))
T1 construct: Bifunctional peptidoglycan synthase PBP1A of E. coli; also called fl-PBP1A (fluorescently labelled); source: purified as described previously in Born et al (2006)
T1 sequence (looked up): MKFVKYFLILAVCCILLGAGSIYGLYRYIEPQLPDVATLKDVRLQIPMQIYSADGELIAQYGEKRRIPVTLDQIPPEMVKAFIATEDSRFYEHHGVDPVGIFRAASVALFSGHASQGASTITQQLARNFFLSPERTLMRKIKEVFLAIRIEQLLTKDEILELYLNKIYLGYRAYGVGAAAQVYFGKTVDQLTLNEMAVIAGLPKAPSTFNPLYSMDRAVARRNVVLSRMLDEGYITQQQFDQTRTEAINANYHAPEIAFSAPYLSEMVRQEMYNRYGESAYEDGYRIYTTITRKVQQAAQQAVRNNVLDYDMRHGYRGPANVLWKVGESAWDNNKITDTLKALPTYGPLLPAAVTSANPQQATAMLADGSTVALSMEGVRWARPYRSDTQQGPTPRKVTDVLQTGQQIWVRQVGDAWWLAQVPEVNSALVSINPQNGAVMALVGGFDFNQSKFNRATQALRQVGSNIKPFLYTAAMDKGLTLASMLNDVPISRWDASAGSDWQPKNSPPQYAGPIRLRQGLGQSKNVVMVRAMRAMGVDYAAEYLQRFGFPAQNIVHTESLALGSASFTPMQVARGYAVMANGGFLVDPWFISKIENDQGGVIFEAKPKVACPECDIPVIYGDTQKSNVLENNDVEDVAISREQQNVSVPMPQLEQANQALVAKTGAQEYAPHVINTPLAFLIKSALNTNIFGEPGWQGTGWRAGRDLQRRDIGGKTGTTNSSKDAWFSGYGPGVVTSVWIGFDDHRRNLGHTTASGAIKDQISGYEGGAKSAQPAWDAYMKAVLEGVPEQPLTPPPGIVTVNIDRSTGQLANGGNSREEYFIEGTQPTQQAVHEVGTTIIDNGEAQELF

B1: MepS(C68A), catalytically inactive MepS (enzyme, Escherichia coli, UniProt P0AFV4 27-188, looked up)
chain: CSANNTAKNMHPETRAVGSETSSLQASQDEFENLVRNVDVKSRIMDQYADWKGVRYRLGGSTKKGIDASGFVQRTFREQFGLELPRSTYEQQEMGKSVSRSNLRTGDLVLFRAGSTGRHVGIYIGNNQFVHASTSSGVIISSMNEPYWKKRYNEARRVLSRS
notes: Peptidoglycan endopeptidase MepS of E. coli with C68A; the results call it MepS; source: E. coli BL21 (λDE3), purified (HisTrap HP, Superdex 200)
B2: MepS (enzyme, Escherichia coli, UniProt P0AFV4 27-188, looked up)
chain: B1 chain with A68C
modifications: where used as fl-MepS in MST: NT647 RED-NHS dye on amines
notes: Peptidoglycan endopeptidase MepS of E. coli, from pET21b-MepS-His (Singh et al, 2012); Construct from Singh et al, 2012; The methods list only MepS(C68A) as an unlabelled MST ligand; wild-type MepS is the labelled protein; also called fl-MepS (fluorescently labelled); MepS-His; source: E. coli BL21 (λDE3), purified (HisTrap HP, Superdex 200)
B3: PBP7, purified (enzyme, Escherichia coli, UniProt P0AFI5 26-310, looked up)
chain: KTAAATTASQPEIASGSAMIVDLNTNKVIYSNHPDLVRPIASISKLMTAMVVLDARLPLDEKLKVDISQTPEMKGVYSRVRLNSEISRKDMLLLALMSSENRAAASLAHHYPGGYKAFIKAMNAKAKSLGMNNTRFVEPTGLSVHNVSTARDLTKLLIASKQYPLIGQLSTTREDMATFSNPTYTLPFRNTNHLVYRDNWNIQLTKTGFTNAAGHCLVMRTVINNKPVALVVMDAFGKYTHFADASRLRTWIETGKVMPVPAAALSYKKQKAAQMAAAGQTAQND
modifications: where used as the labelled protein in MST: NT647 RED-NHS dye on amines
notes: PBP7 (DD-endopeptidase) of E. coli; source: E. coli BL21 (λDE3), purified (HisTrap HP, Superdex 200)
B4: LpoA, purified (natural protein, Escherichia coli, UniProt P45464 27-678, looked up)
chain: CGTHTPDQSTAYMQGTAQADSAFYLQQMQQSSDDTRINWQLLAIRALVKEGKTGQAVELFNQLPQELNDAQRREKTLLAVEIKLAQKDFAGAQNLLAKITPADLEQNQQARYWQAKIDASQGRPSIDLLRALIAQEPLLGAKEKQQNIDATWQALSSMTQEQANTLVINADENILQGWLDLQRVWFDNRNDPDMMKAGIADWQKRYPNNPGAKMLPTQLVNVKAFKPASTNKIALLLPLNGQAAVFGRTIQQGFEAAKNIGTQPVAAQVAAAPAADVAEQPQPQTVDGVASPAQASVSDLTGEQPAAQPVPVSAPATSTAAVSAPANPSAELKIYDTSSQPLSQILSQVQQDGASIVVGPLLKNNVEELLKSNTPLNVLALNQPENIENRVNICYFALSPEDEARDAARHIRDQGKQAPLVLIPRSSLGDRVANAFAQEWQKLGGGTVLQQKFGSTSELRAGVNGGSGIALTGSPITLRATTDSGMTTNNPTLQTTPTDDQFTNNGGRVDAVYIVATPGEIAFIKPMIAMRNGSQSGATLYASSRSAQGTAGPDFRLEMEGLQYSEIPMLAGGNLPLMQQALSAVNNDYSLARMYAMGVDAWSLANHFSQMRQVQGFEINGNTGSLTANPDCVINRNLSWLQYQQGQVVPVS
modifications: where used as the labelled protein in MST: NT647 RED-Maleimide dye on cysteines
notes: called LpoA^sol in the TPase methods; also called LpoA^sol; fl-LpoA; source: purified as described previously in Jean et al (2014)
B5: PBP4, native, purified (enzyme, Escherichia coli, UniProt P24228 21-477, looked up)
chain: ANVDEYITQLPAGANLALMVQKVGASAPAIDYHSQQMALPASTQKVITALAALIQLGPDFRFTTTLETKGNVENGVLKGDLVARFGADPTLKRQDIRNMVATLKKSGVNQIDGNVLIDTSIFASHDKAPGWPWNDMTQCFSAPPAAAIVDRNCFSVSLYSAPKPGDMAFIRVASYYPVTMFSQVRTLPRGSAEAQYCELDVVPGDLNRFTLTGCLPQRSEPLPLAFAVQDGASYAGAILKDELKQAGITWSGTLLRQTQVNEPGTVVASKQSAPLHDLLKIMLKKSDNMIADTVFRMIGHARFNVPGTWRAGSDAVRQILRQQAGVDIGNTIIADGSGLSRHNLIAPATMMQVLQYIAQHDNELNFISMLPLAGYDGSLQYRAGLHQAGVDGKVSAKTGSLQGVYNLAGFITTASGQRMAFVQYLSGYAVEPADQRNRRIPLVRFESRLYKDIYQNN
modifications: where used as the labelled protein in MST: NT647 RED-NHS dye on amines
notes: PBP4 (DD-endopeptidase) of E. coli, 'native PBP4' purified after Kishida et al (2006); Untagged ('native'); source: E. coli BL21 (λDE3), purified (HiTrap Q, hydroxyapatite, Superdex 200)

Numbering of substitutions follows the chain as printed. Names may count otherwise.

Common to all, as to details: both partners purified
One test addresses T1, PBP1A, purified. The experiment in a line: MST; titration: NT647-labelled protein against a two-fold serial dilution (16 steps) of unlabelled ligand; 25 mM HEPES/NaOH, 150 mM NaCl, 0.05% Triton X-100, pH 7.5; Monolith NT.115; apparent constants; for NlpI with itself: dimer to monomers.
Test [1] has as its target T2, NlpI, soluble version lacking its membrane anchor (Escherichia coli, UniProt P0AFB1 20-294, where used as fl-NlpI in MST: NT647 RED-NHS dye on amines).
T2 construct: Outer membrane lipoprotein NlpI of E. coli, soluble version lacking its membrane anchor; Homodimer by AUC; also called fl-NlpI (fluorescently labelled); His-NlpI; source: E. coli BL21 (λDE3), purified (HisTrap HP, Superdex 200)
The description is as above.

The target in the test “PBP4, native, purified” is B5. The experiment in a line: MST + pull-down; endopeptidases tested against each other, 'a combination of MST and Ni2+-NTA pull-down assays'; all combinations of MepM, MepS, PBP4, PBP7.
The test “LpoA, purified” concerns the target B4. Briefly: MST; titration: NT647-labelled protein against a two-fold serial dilution (16 steps) of unlabelled ligand; 25 mM HEPES/NaOH, 150 mM NaCl, 0.05% Triton X-100, pH 7.5; Monolith NT.115; apparent constants; for NlpI with itself: dimer to monomers.
Test [2] addresses T3, pre-formed NlpI-PBP4 complex (Escherichia coli, UniProt P0AFB1 20-294; P24228 21-477).
T3 construct: NlpI of E. coli, soluble version lacking its membrane anchor, as the chain of m1; PBP4 of E. coli, native, as the chain of m5; NlpI 3 μM with excess PBP4 30 μM for assays with labelled MepS or LpoA; PBP4 0.5 μM with NlpI 1 μM for assays with labelled PBP1A; also called PBP4‐NlpI complex; PBP4‐NlpI; source: pre-formed from purified NlpI and purified PBP4, on ice for 10 min
Briefly: MST; fixed ligand concentration assay: labelled MepS, LpoA or PBP1A with fixed unlabelled NlpI, PBP4, PBP7 or pre-formed complexes (NlpI 3 μM with 30 μM PBP4 or PBP7 for fl-MepS and fl-LpoA; PBP4 0.5 μM with NlpI 1 μM for fl-PBP1A); FNorm, or raw fluorescence for LpoA.

T2 sequence (P0AFB1 20-294): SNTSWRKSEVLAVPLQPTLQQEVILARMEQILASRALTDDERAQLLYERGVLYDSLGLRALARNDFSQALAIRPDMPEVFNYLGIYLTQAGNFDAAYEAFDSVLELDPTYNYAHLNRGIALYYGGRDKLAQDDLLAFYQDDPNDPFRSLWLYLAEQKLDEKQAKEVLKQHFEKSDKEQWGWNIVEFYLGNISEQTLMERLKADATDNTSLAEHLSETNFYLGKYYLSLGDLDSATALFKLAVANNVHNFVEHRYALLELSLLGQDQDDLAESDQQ
T3 sequence (P0AFB1 20-294, one chain of several): as the sequence (P0AFB1 20-294) above

For the molecule B1, the Kd with PBP1A, purified was 91 nM.

With B2, in test [1], the Kd amounted to 145 nM.

B3: in the test with PBP4, native, purified, the binding result is given as “binds”. Further, the Kd with LpoA, purified came to 217 nM; in the test with PBP1A, purified, 101 nM. In addition, in test [1], the EC50 is 422 nM.

On to B4, for which the binding result in test [2] was “binds”.

As to B5, the Kd in the test with LpoA, purified was 315 nM; with PBP1A, purified, 106 nM.

(Values after PMC7049810, “Outer membrane lipoprotein NlpI scaffolds peptidoglycan hydrolases within multi‐enzyme complexes in Escherichia coli” (The EMBO Journal, 2020).)
